According to the RNAGym collection of RNA variant scans (doi:10.7554/elife.90254):

B1: LINE1-full (parent)
chain: UACGUAGGUGGUUUUCCCCUGAUAGUGCUAAGGGGGCCUGGAAGUUUGGACUGGGCAGAGCUCAACACAGCGUGGCAAAGUGGCUGUGGCUAGACUGCCUCUCUGGAUUCCUCGUCACUCAGCAGGGCAUCUCUGAGAGAAAUGCC

Variants of: B1
Experiment: self-cleavage, relative activity (ratio to wild type); higher = more cleavage; in vitro, sequencing; the parent is a self-cleaving ribozyme

Point of comparison: UACGUAGGUGGUUUUCCCCUGACAGUGCUAAGGGGGCCUGGAAGUUUGGACUGGGCAGAGCUCAACACAGCGUGGCAAAGUGGCUGUGGCUAGACUGCCUCUCUGGAUUCCACGUCACUCAGCAGGGCAUCUCUGAGAGAAAUGCC, self-cleavage 1.37. Against it:
- UACGUAGGUGGUUUUCCCCUGAUCGUGCUAAGGGGGCCUGGAAGUUUGGACUGGGCAGAGCUCAACACAGCGAGGCAAAGUGGCUGUGGCUAGACUGCCUCUCUGGAUUCCUCGUCACUCAGCAGGGCAUCUCUGAGAGAAAUGCC — lower, 0.46
- UACGUAGGUGGUUUUCCCCUGAGAGUGCUAAGGGGGCCUGGAAGUUUGGACUGGGCAGAGCUCAACACAGCGUGGCAAAGUGGCUGUGGCUAGACUGCCUCUCUGGAUUCCUCGUCACUCAGCAGGGCAUCUCUGAGAGGAAUGCC — lower, 1.27
- UACGUAGGUGGUUUUCCCCUGACAGUGCUAAGGGGGCCUGGAAGUUUGGACUGGGCAGAGCUCAACACAGCGUGGCAAAGUGGCUGUGGCCAGACUGCCUCUCUGGAUUCCUCGUCACUCAGCAGGGCAUCUCUGAGAGAAAUGCC — lower, 1.18
- UACGUAGGUGGUUUUCCCCUGACAGUGCUAAGGGGGCCUGGAAGUUUGGACUGGGCAGAGCUCAACACAGCGUGGCAAAGUGGCUGUGGCGAGACUGCCUCUCUGGAUUCCUCGUCACUCAGCAGGGCAUCUCUGAGAGAAAUGCC — lower, 0.15
- UACGUAGGUGGUUUUCCCCUGAUCGUGCUAAGGGGGCCUGGAAGUUUGGACUGGGCAGAGCUCAACACAGCGUGGCAAAGUGGCUGUGGCUAGACUGCCUCUCUGGAUUCCUCGUCACUCAGCAGGGCAUCUCGGAGAGAAAUGCC — lower, 1.02
- UACGUAGGUGGUUUUCCCCUGACAGUGCUAAGGGGGCCUGGAAGUUUGGACUGGGCAGAGCUCAACACAGCGUGGCAAAGUGGCUGUGGCUAGACUGCCUCUCUGGAUUCCUCGUCACACAGCAGGGCAUCUCUGAGAGAAAUGCC — lower, 1.17
- UACGUAGGUGGUUUUCCCCUGACAGUGCUAAGGGGGCCUGGAAGUUUGGACUGGGCAGAGCUCAACACAGCGUGGCAAAGUGGCUGUGGCUAGACUGCCUCUCUGGAUUCCUCGUCACCCAGCAGGGCAUCUCUGAGAGAAAUGCC — higher, 1.61
- UACGUAGGUGGUUUUCCCCUGAUGGUGCUAAGGGGGCCUGGAAGUUUGGGCUGGGCAGAGCUCAACACAGCGUGGCAAAGUGGCUGUGGCUAGACUGCCUCUCUGGAUUCCUCGUCACUCAGCAGGGCAUCUCUGAGAGAAAUGCC — lower, 1.16
- UACGUAGGUGGUUUUCCCCUGACAGUGCUAAGGGGGCCUGGAAGUUUGGACUGGGCAGAGCUCAACACAGCGUGGCAAAGUGGCAGUGGCUAGACUGCCUCUCUGGAUUCCUCGUCACUCAGCAGGGCAUCUCUGAGAGAAAUGCC — lower, 0.07
- UACGUAGGUGGUUUUCCCCUGACAGUGCUAAGGGGGCCUGGAAGUUUGGACUGGGCAGAGCUCAACACAGCGUGGCAAAGUGGCCGUGGCUAGACUGCCUCUCUGGAUUCCUCGUCACUCAGCAGGGCAUCUCUGAGAGAAAUGCC — lower, 0.22
- UACGUAGGUGGUUUUCCCCUGACAGUGCUAAGGGGGCCUGGAAGUCUGGACUGGGCAGAGCUCAACACAGCGUGGCAAAGUGGCUGUGGCUAGACUGCCUCUCUGGAUUCCUCGUCACUCAGCAGGGCAUCUCUGAGAGAAAUGCC — higher, 1.52
- UACGUAGGUGGUUUUCCCCUGACAGUGCUAAGGGGGCCUGGAAGUAUGGACUGGGCAGAGCUCAACACAGCGUGGCAAAGUGGCUGUGGCUAGACUGCCUCUCUGGAUUCCUCGUCACUCAGCAGGGCAUCUCUGAGAGAAAUGCC — lower, 0.92
- UACGUAGGUGGUUUUCCCCUGAGAGUGCUAAGGGGGCCUGGAAGUUUGGACUGGGCAGAGCUCAACACAGCGUGGCAAAGUGGCUGUGGCUAGACUGCCUCUCUGGAUACCUCGUCACUCAGCAGGGCAUCUCUGAGAGAAAUGCC — lower, 1
- UACGUAGGUGGUUUUCCCCUGACAGUGCUAAGGGGGCCUGGAAGUUCGGACUGGGCAGAGCUCAACACAGCGUGGCAAAGUGGCUGUGGCUAGACUGCCUCUCUGGAUUCCUCGUCACUCAGCAGGGCAUCUCUGAGAGAAAUGCC — lower, 1.32
- UACGUAGGUGGUUUUCCCCUGAUGGUGCUAUGGGGGCCUGGAAGUUUGGACUGGGCAGAGCUCAACACAGCGUGGCAAAGUGGCUGUGGCUAGACUGCCUCUCUGGAUUCCUCGUCACUCAGCAGGGCAUCUCUGAGAGAAAUGCC — the same, 1.37
- UACGUAGGUGGUUUUCCCCUGAGAGUGCUAAGGGGGCCUGGAAGUUUGGACUGGGCAGAGCUCAACACAGCGUGGCAAAGUGGCUGUGGCUAGACUGCCUCUCUGGAUUCCUCGUCACUCAUCAGGGCAUCUCUGAGAGAAAUGCC — lower, 1.17
- UACGUAGGUGGUUUUCCCCUGACAGUGCUAAGGGGGCCUGGAAGUUUGGACUGGGCAGAGCUCAACACAGCGUGGCAAAGUGGCUGUGGCUAGACUGCCUCUCUGGAUUCCUCGUCACUCAGCAGGGCAUCUCUGAGAGAAACGCC — higher, 1.41
- UACGUAGGUGGUUUUCCCCUGAUCGUGCUAAGGGGGCCUGGAAGUUUGGACUGGGCAGAGCUCAACGCAGCGUGGCAAAGUGGCUGUGGCUAGACUGCCUCUCUGGAUUCCUCGUCACUCAGCAGGGCAUCUCUGAGAGAAAUGCC — lower, 0.42
- UACGUAGGUGGUUUUCCCCUGACAGUGCUAAGGGGGCCUGGAAGUUUGGACUGGGCAGAGCUCAACACAGCGUGGCAAAGUGGCUGUGGCUAGACUGCCCCUCUGGAUUCCUCGUCACUCAGCAGGGCAUCUCUGAGAGAAAUGCC — higher, 1.79
- UACGUAGGUGGUUUUCCCCUGACAGUGCUAAGGGGGCCUGGAAGUUUGGACUGGGCAGAGCUCAACACAGCGUGGCAAAGUGGCUGUGGCUAGACUGCCACUCUGGAUUCCUCGUCACUCAGCAGGGCAUCUCUGAGAGAAAUGCC — lower, 1.3
- UACGUAGGUGGUUUUCCCCUGAUCGUGCUAAGGGGGCCUGGAAGUUUGGACUGGGCAGAGCUCAACACAGCGUGGCAAAGUGGCUGUGGCUAGACUGCCUCUCUGGAUUCCUCGUCACUCAGCAGGGCAUCUCUGAGAGAACUGCC — lower, 1.13
- UACGUAGGUGGUUUUCCCCUGACAGUGCUAAGGGGGCCUGGAAGUUUGGACUGGGCAGAGCUCAACACAGCGUGGCAAAGUGGCUGCGGCUAGACUGCCUCUCUGGAUUCCUCGUCACUCAGCAGGGCAUCUCUGAGAGAAAUGCC — lower, 0.25
- UACGUAGGUGGUUUUCCCCUGAUGGUGCUAAGGGGGCCUGGAAGUUUGGACUGGGCCGAGCUCAACACAGCGUGGCAAAGUGGCUGUGGCUAGACUGCCUCUCUGGAUUCCUCGUCACUCAGCAGGGCAUCUCUGAGAGAAAUGCC — lower, 0
- UACGUAGGUGGUUUUCCCCUGACAGUGCUAAGGGGGCCUGGAAGUUUGGACUGGGCAGAGCCCAACACAGCGUGGCAAAGUGGCUGUGGCUAGACUGCCUCUCUGGAUUCCUCGUCACUCAGCAGGGCAUCUCUGAGAGAAAUGCC — lower, 0.04
- UACGUAGGUGGUUUUCCCCUGACAGUGCUAAGGGGGCCUGGAAGUUUGGACUGGGCAGAGCUCAACACAGCGUGGCAAAGUGGCUGUGGCUAGACUGCCUCUCUGGACUCCUCGUCACUCAGCAGGGCAUCUCUGAGAGAAAUGCC — higher, 1.38
- UACGUAGGUGGUUUUCCCCUGACAGUGCUAAGGGGGCCUGGAAGUUUGGACUGGGCAGAGCUCAACACAGCGUGGCAAAGUGGCUGUGGCUAGACUGCCUCUCUGGAAUCCUCGUCACUCAGCAGGGCAUCUCUGAGAGAAAUGCC — lower, 1.33
- UACGUAGGUGGUUUUCCCCUGAGAGUGCUAAGGGGGCCUGGAAGUUUGGACUGGGCAGAGCUCAACACAGCGUGGCAAAGUGGCUGUGGCUAGACUGCCUCUCUGGAUUCCUCGUCACUCAGCAGGGCAUCUCUGAGAGAAACGCC — lower, 0
- UACGUAGGUGGUUUUCCCCUGAGAGUGCUAAGGGGGCCUGGAAGUUUGGACUGGGCAGAGCUCAACACAGCGUGGCAAAGUGGCUGUGGGUAGACUGCCUCUCUGGAUUCCUCGUCACUCAGCAGGGCAUCUCUGAGAGAAAUGCC — lower, 0.03
- UACGUAGGUGGUUUUCCCCUGACAGUGCUAAGGGGGCCUGGAAGUUUGGACCGGGCAGAGCUCAACACAGCGUGGCAAAGUGGCUGUGGCUAGACUGCCUCUCUGGAUUCCUCGUCACUCAGCAGGGCAUCUCUGAGAGAAAUGCC — higher, 1.43
- UACGUAGGUGGUUUUCCCCUGAUCGUGCUAAGGGGGCCUGGAAGUUUGGACUGGGCAGAGCUCAACACAGCGUGGCAAAGUGGCUGUGGCUAGACUGCCUCUCUGGAUUCCUCGUCACUCAGCGGGGCAUCUCUGAGAGAAAUGCC — lower, 0.98
- UACGUAGGUGGUUUUCCCCUGACAGUGCUAAGGGGGCCUGGAAGUUUGGACUGGGCAGAGCUCAACACAGCGUGGCAAAGUGGCUGUGGCUAGACUGCCUCUCAGGAUUCCUCGUCACUCAGCAGGGCAUCUCUGAGAGAAAUGCC — lower, 1.14
- UACGUAGGUGGUUUUCCCCUGACAGUGCUAAGGGGGCCUGGAAGUUUGGACUGGGCAGAGCUCAACACAGCGUGGCAAAGUGGCUGUGGCUAGACUGCCUCUCCGGAUUCCUCGUCACUCAGCAGGGCAUCUCUGAGAGAAAUGCC — higher, 1.78
- UACGUAGGUGGUUUUCCCCUGAUCGUGCUAAGGGGGCCUGGAAGUUUGGACUGGGCAGAGCUCAACACAGCGUGGCAAUGUGGCUGUGGCUAGACUGCCUCUCUGGAUUCCUCGUCACUCAGCAGGGCAUCUCUGAGAGAAAUGCC — higher, 2.24
- UACGUAGGUGGUUUUCCCCUGAUGGUGCUAAGGGGGCCUGGAUGUUUGGACUGGGCAGAGCUCAACACAGCGUGGCAAAGUGGCUGUGGCUAGACUGCCUCUCUGGAUUCCUCGUCACUCAGCAGGGCAUCUCUGAGAGAAAUGCC — higher, 1.54
- UACGUAGGUGGUUUUCCCCUGAUGGUGCUAAGGGGGCCUGGAGGUUUGGACUGGGCAGAGCUCAACACAGCGUGGCAAAGUGGCUGUGGCUAGACUGCCUCUCUGGAUUCCUCGUCACUCAGCAGGGCAUCUCUGAGAGAAAUGCC — lower, 1.12
- UACGUAGGUGGUUUUCCCCUGACAGUGCUAAGGGGGCCUGGAAGUUUGGACUGGGCAGAGCUCAACACAGCGUGGCAAAGUGGCUGUGGCUAGACUGCCUCUCUGGAUUCCUCGUCACUCAGCAGGGCACCUCUGAGAGAAAUGCC — higher, 1.76
- UACGUAGGUGGUUUUCCCCUGAUCGUGCUAAGGGGGCCUGGAAGUUUGGACUGGGCAGAGCUCGACACAGCGUGGCAAAGUGGCUGUGGCUAGACUGCCUCUCUGGAUUCCUCGUCACUCAGCAGGGCAUCUCUGAGAGAAAUGCC — lower, 0.64
- UACGUAGGUGGUUUUCCCCUGAUCGUGCUAAGGGGGCCUGGAAGUUUGGACUGGGCAGAGCUCUACACAGCGUGGCAAAGUGGCUGUGGCUAGACUGCCUCUCUGGAUUCCUCGUCACUCAGCAGGGCAUCUCUGAGAGAAAUGCC — lower, 0.58
